experiment: soluble on expression in E. coli; label from the status in PepcDB or PDB records

Sequence	soluble on expression in E. coli
MKIYIEGYGCTLNTADTQIIKNSVNEFEDFELTDNVDDSDIIVINTCIVRQETEHRMISRIEYFKSLDKKVVVAGCMAKALSKKIENLADVLIMPREAQHSGNILKDKLLKDFSEKNNESTQNLNFEDKLNEKIKKVSSQGLITALPICEGCLGSCTYCIVKRARGNLASYDRDLIVKKAEELVKSGTKCLLVTAQDTACYGLDNNDSLPNLINDISEIPEKFAMRIGMMHAKFAEPILDELIESFKSEKVVKFLHLPIQSGDDQVLKDMNRNYTVDEYISVLNEFKSKIKNLNFTTDVIVGFPTETEEAFENTLEIVKKIKPDFTHAAKYSQRKYTKAAILKQVDTKIRKERSEILNELRRELSYENNKRHIGETFEILVTKDNMGVTDNCKNVIFEEPAKIGEFKRVKITGAKTFGLSGKLINLEHHHHHH	soluble
MKKEHLKFVIDSRCFRGSCVTSMSDGIHCDYYGSTLEELKKQENNPFLVAVTRNAIHKRSRIHDKSLCRPFREITEENYYNCMNELPPVRLKHHSFFFGEPYHGSLYMFCFTIGKRFFRGLRPVMTPQAELERQMNEHYHNITFKGKVTKGKAERITSKDKQEIITIPYSFTDKENRERFICNMVTGGNDGGDTCKARKDMTNILLSLRKHHFLYFSGYGRHDDMETLLDEVEEKRYTIITSGCLFQFPPCRDSVSFTGSVKETGENFFYRIYDRELFLHIMHRLRAVKREKTPAEAKAVLPKCKCYE	not soluble
MKKFDGVIFDMDGLLFDTELIYYTSTQKVADAMGLPYSKEVYLDYVGISDEEVQENYRRIYASYGHDTVEEFIRRSYDDTLQEFRSGNVPLKPGVVEFLDFLDDQKIPRLVASSNVRPAIEMLLSHAGIQDRFVGIVSAEDVKRAKPDPEIFQKARQLLGTEAPKTLIFEDSFHGVSAAHSAGIPVIMVPDLLQPTEVIQEKTLHVLESLHQAPHYLK	not soluble
MKKHDGIIVLLSGGMDSATLLWLAKREFKKVYAISFDYGQRHKVELKYAKELAKLAEVEDHFIVQVPFYTSLKGSALIDESVEVPKGEYPENEPPVTTVPMRNLIFLSIASAFADNLEVNYIGIGVHALDTPYPDCRPEFITAAEAAINAGSTFVAKKKERMHVYAPFLGMSKRDIALLGKELGVPFEKTYSCYMGTEPPCGECPTCIQREEALRGIL	soluble
MKKHHHHHHEDFHGIDIVINHRLKTSLEEGKVLEKTVPDLNNCKENYEFLIKWTDESHLHNTWETYESIGQVRGLKRLDNYCKQFIIEDQQVRLDPYVTAEDIEIMDMERERRLDEFEEFHVPERIIDSQRASLEDGTSQLQYLVKWRRLNYDEATWENATDIVKLAPEQVKHFQKK	soluble
MKKIEIFDPAMCCPTGLCGTNINPELMRIAVVIESLKKQGIIVTRHNLRDEPQVYVSNKTVNDFLQKHGADALPITLVDGEIAVSQTYPTTKQMSEWTGVNLD	soluble
MKKLKVMTVFGTRPEAIKMAPLVLELKKYPEIDSYVTVTAQHRQMLDQVLDAFHIKPDFDLNIMKERQTLAEITSNALVRLDELFKDIKPDIVLVHGDTTTTFAGSLAAFYHQIAVGHVEAGLRTGNKYSPFPEELNRQMTGAIADLHFAPTGQAKDNLLKENKKADSIFVTGNTAIDALNTTVRDGYSHPVLDQVGEDKMILLTAHRRENLGEPMENMFKAIRRIVGEFEDVQVVYPVHLNPVVREAAHKHFGDSDRVHLIEPLEVIDFHNFAAKSHFILTDSGGVQEEAPSLGKPVLVLRDTTERPEGVEAGTLKLAGTDEENIYQLAKQLLTDPDEYKKMSQASNPYGDGEASRRIVEELLFHYGYRKEQPDSFTGKGSHHHHHH	soluble
MKKLSGIIVLLLAGAALYLALKTSPIDPLAWDAPAAPQMTGVLEPNDTLMKAELLGQGQLHGPEDTAVDSQGRVYAGLADGRVVRLDASGKVETFVDTGGRPLGMDFDAAGNLILADAWKGLLRIDPQGKVETLATEADSVPFAFTDDLDIASDGRIYFSDASSKFHQPDYILDLLEARPHGRLLRYDPSTGKTEVLLKDLYFANGVALSANEDFVLVNETYRYRITRYWLKGEKAGQHEVFIDNLPGLPDNLQGDRKGTFWVALPTPRKADADFLHRHPWLKAQLAKLPRMFLPKPTAYGLVIAIDEQGRIVRSLHDTSGHHLRMITSAKPVGDQLYFGSLENDRIGRLAIPLEHHHHHH	soluble
MKKLYGVIGNPIGHSMSPDIHNASLKDLGLDGHYHAFKVEENDLEDAVKGIRALGVQGINVTVPHKVSIMDYLDHIDESAKVLGAVNTVRREGDKLVGYNTDGEGFVKSLMKVLDKPISELSFLMIGAGGAARAIFTTFVRNTPKKFDICNRTLEKAKRLTEATPSFHNKEVLSIKEAEERLEQYDVIIHTTSVGMYPNVDDVPLSLQRAASSAVVCDIVYNPIQTALLKEASQKGLKTLDGVGMFVEQAALSFQLWTGQEPNIEKMRSIVIGKLGGTECLEHHHHHH	soluble
MKKPPLNICILRLSAIGDVCHTLAVIQAIQRQYPDIKISWIIGKTEAHLMQGIHNVELIPYDKKSGWQGIITLWKQLRNKRFDFLLNMQTALRASMLSLGIKATHKIGFNKDRAREMQSLFVDSQVEMTASPHVLDGQMMFAKAIGVTDLTPRWHLPVSSADLAYSNQFLNPHTQNVVIAPCSSKTEKDWDIASNAEIAKWLTDQNINVIIVGSPTDYECATANQIKQLAPKVINTTGKTTLKQLAALIKQVDLVIAPDTGVAHIATTQHTRVIGLYAIHNPRRTAPYSDQANVISVYDQAILDYYGTSWDKLAWATKAKSKKGEKLMQRITVEEVKQKIVETLNLKL	not soluble
MKKQKSFPMSAYEDLLGKITAPTITVENWEGILAFCDMINNDFEGSKTGIKSLRKRLNNRDPHVVLLAISVLDSCWANCEERFRKEVSSAQFINELKALCTSSQRQVAEKMRLTVQKWVDTECKTEQSLSLIVTLHKNLVADGYSFVVDDPKSKTKAIDAKFANDPNYVGSAQEEEAIAKAIAASLADAEKQEKAKKSTSTMYPSAKASSPAVQTNSNIPEKNVRALYDFEAAESNELSFVAGDIITITDESNPHWWTGRIGTQQGLFPSSFVTNQLDDLKSKETDSSQKAPEVVASINEAILVRCLQVLHECDPTGERQDPEDLAQLEAASYAQGNLIDAHLASIDRQSNSLAQIDVAIRDVLALYDDAIQKGGFQHQSQGMYQQPMQQYNYQQPPNRAYYPPTGPVQQQQPQQYPPQHYPAPGAQPQYACPPNSVPQPQQQQQQWPAPSSQPQQY	not soluble
MKKSHYSVIIVGGGQAGLAISYLLKQESIDHVIFEKNQIGHAWRNQRWDSFCLVTPNWQCRLPGFPYAGGDDQGFMLKDEIVQYLEDYAASFQAPILEGVEVSKLSQRTDAFEVITSQGIYTADQVVVATGGYHTPKIAAIAKKLPPHIVQLHSVDYKNPETLPDRILLVGTGQSGCQIAEDLHLAGKTVHLATGSAPRSPRRYRGRDVVEWLELMGHYDLPIDEHPQKEMVRHKTNHYLTGRDGGREIDLRQFALEGMHLYGRLKDIDGNQILFADNLKENLDQADATAARIKQSIDEYIAKNQLDAPIEAPYQPVWEPTSIPLTLNIDEIDAVIWSTGFNFNYAWVDVPVFNSMGEPLHNRGVTNVAGLYFLGLPWLYTWGSGRFSGVARDAEYLAEKIRETLPANQINPCTVALEHHHHHH	not soluble
MKKTQSEPDQEAIRKIEELSQDLIEGLESYGARLLSVYAHGGILFSEQSEFLHQLVGGRRERIPLTFGTIASTIYSDRVIFGKETIEIRHESNERFAGMFGWKEYPSKTRPGMTDGLLTAPFEFILTQSFVFKSKAAASVIMGRKQNQMINAADRASSQIEALDEALDDLESNRFVLGEHHLSLAVFANHPKALAEYLSKARAHLTNGGAVIAREDLGLEAAWWAQLPGNFSYRARSGAITSRNFAALSPFHSFPIGKLEGNVWGTAVALLKTQAGSPYYFNFHYGDLGNTFVCGPSGSGKTVIVNFLLAQLQKHNPTMVFFDKDQGAEIFVRAGGGKYKPLKNGQPTGIAPLKGMEYTEKNKVFLRNWVLKLVTAEGQTVTEEERQDIAKAIDALGNLPHAQRSLSALQLFFDNTSKEGIAIRLQRWLKGNDLGWVFDNDQDDLNLDSQFIGYDMTDFLDNEEIRRPLMMYLFNRILDLIDGRRIIIVIDEFWKALEDDSFKAFAQDRLKTIRKQNGMMLFATQSPKDALNSTIAHTIIEQCPTQIFFPNQKANYKDYVEDFKLTEREFELIQSELSRESRRFLIKQGQSSVVAELNLRGMNDEIAVLSGTTKNIELVNQIISEYGADPDIWLPIFHQRRENQLEHHHHHH	soluble
MKKVFIPINTKIPVERQFPNRVPIWGNYEFIISTKEPEQEYDYVVVLDDIEYSLRLMCCKQNICLFTGEPPYVKLYPRKYLNQFGHVYTCQSSVLKRDNACLSYPALPWMLYYNFYNDKQKEELLIDYDFLKNRPTLQRKNKICLFTSNKKISKGHIERIKFALKLQEEMPDLIDIYGSGFTNVDYKYEVMVQYKYAIVIENCSYPYYWTEKLADTFLSGCYPIYFGDPHIGDFFSKEEMAVIDIRNFDESKQTIKKIIDNNVYEKQYENICHARDKILDKYNMFSLISSTLDSIPAKLDKEKLLLSPMRLSVFDRIRNRIYRLFYLEHHHHHH	not soluble
MKKVGKSTFKFENCPIISDCFTIVGKKEGEGPLGLFFDMVVEDEYAGQKSWELAEGKLLNIAISKLIQKSGFTPDEVDLILSGDLLNQLTSSHFAARDLNIPFIGLYGACSTFALSVGLACVFVDGGFAKNIIAATSSHFCSAEKQFRYPLELGCQRPPTAQWTVTGAASFLIKPEDGTQKPKITHFTVGKILDYGIKDSNNMGACMAPAAFDTITTHLEDTKRDFTYYDIIVTGDLGYVGRKLLEELFKKEGKTLSFELLDCGILMFDQKTQDTGAGASGCAASACIFGGYFYKLMLQKTFKRILIVPTGALLSSSTVQLGESIPVIAHALSIEIELEHHHHHH	not soluble
MKKVTAMLFSMAVGLNAVSMAAKAKASEEQETDVLLIGGGIMSATLGTYLRELEPEWSMTMVERLEGVAQESSNGWNNAGTGHSALMELNYTPQNADGSISIEKAVAINEAFQISRQFWAHQVERGVLRTPRSFINTVPHMSFVWGEDNVNFLRARYAALQQSSLFRGMRYSEDHAQIKEWAPLVMEGRDPQQKVAATRTEIGTDVNYGEITRQLIASLQKKSNFSLQLSSEVRALKRNDDNTWTVTVADLKNGTAQNIRAKFVFIGAGGAALKLLQESGIPEAKDYAGFPVGGQFLVSENPDVVNHHLAKVYGKASVGAPPMSVPHIDTRVLDGKRVVLFGPFATFSTKFLKNGSLWDLMSSTTTSNVMPMMHVGLDNFDLVKYLVSQVMLSEEDRFEALKEYYPQAKKEDWRLWQAGQRVQIIKRDAEKGGVLRLGTEVVSDQQGTIAALLGASPGASTAAPIMLNLLEKVFGDRVSSPQWQATLKAIVPSYGRKLNGDVAATERELQYTSEVLGLNYDKPQAADSTPKPQLKPQPVQKEVADIAL	not soluble
MKLEIGYNHPFEIRKERYESDHVCNFSVLYISDLHLTVFSKDICTRLSKCIQELNPTIIILGGDYIDCRNGWDYLSTFFKFLSARKNVFSIAGNHDYFYGIDEIKKLIESNNIHWLENQSAVVNIQEYNILLTGNNETQSSIPADFNILCLHKPVSLDAFKIPYHIAFAGHLHGCQCVFWQNENGLYPGRFFYTFNFLRRQVKNCLYLISKGLGDTLPIRFNCKKDIIFVEIKNNSNKLEHHHHHH	not soluble
MKLEVTPKAQQWFKEETGVQPETGIRFFGKIYGKTPVHDGFSIAMSVEAPDEPMIKENLDGITYFIEETDDWFFKGYDLIVDYDEKNDEPRYQFEANQEDLTK	not soluble
MKLFRVVKRGYYISYAILDNSTIIRLDEDPIKALMRYSENKEVLGDRVTGIDYQSLLKSFQINDIRITKPIDPPEVWGSGISYEMARERYSEENVAKILGKTIYEKVYDAVRPEIFFKATPNRCVGHGEAIAVRSDSEWTLPEPELAVVLDSNGKILGYTIMDDVSARDLEAENPLYLPQSKIYAGCCAFGPVIVTSDEIKNPYSLDITLKIVREGRVFFEGSVNTNKMRRKIEEQIQYLIRDNPIPDGTILTTGTAIVPGRDKGLKDEDIVEITISNIGTLITPVKKRRKIT	soluble
